Measurements: US20260241049A1, “Radiopharmaceutical Compositions Targeting Glypican-3 and Uses Thereof” (RayzeBio, Inc., priority 2023, published 2026)
Starred links: 1 amine or outer side, 2 acyl side, 3 side chain; linkers in the order of their positions; H or OH if unused. Positions of bridges follow the written chain, without caps; N, C: chain ends. Non-standard residues stand in square brackets, D forms with d. Primed or numbered codes have the meaning given here. MeKCOpipzaa″ = (2S)-6-{[4-(carboxymethyl)piperazine-1-carbonyl]amino}-2-(methylamino)hexanoic acid, CN([C@@H](CCCCNC(=O)N1CCN(CC(=O)[*:3])CC1)C(=O)[*:2])[*:1]; MeDapCOpipzaa = 3-(4-(carboxymethyl)piperazine-1-carboxamido)-2-(methylamino)propanoic acid, CN([C@@H](CNC(=O)N1CCN(CC(=O)[*:3])CC1)C(=O)[*:2])[*:1]; MeKCOpipzaa = N-alpha-methyl-N6-[4-(carboxymethyl)piperazine-1-carbonyl]-L-lysine, CN([C@@H](CCCCNC(=O)N1CCN(CC(=O)[*:3])CC1)C(=O)[*:2])[*:1]; W5N = 2-amino-3-(1H-pyrrolo[3,2-c]pyridin-3-yl)propanoic acid (5-aza-tryptophan), O=C([C@H](Cc1c[nH]c2ccncc12)N[*:1])[*:2]; 3Py6NHaa = 2-amino-3-(6-((carboxymethyl)amino)pyridin-3-yl)propanoic acid, O=C([C@H](Cc1ccc(NCC(=O)[*:3])nc1)N[*:1])[*:2]; F4aao = 4-(carboxymethoxy)-L-phenylalanine, O=C([C@H](Cc1ccc(OCC(=O)[*:3])cc1)N[*:1])[*:2]; MeHseMe = N-methyl-O-methyl-L-homoserine, COCC[C@@H](C(=O)[*:2])N(C)[*:1]; Thr(Me)(3) = TMe, O-methyl-L-threonine, CO[C@H](C)[C@H](N[*:1])C(=O)[*:2]; Thr(Me)″ = TMe = O-methyl-L-threonine, CO[C@H](C)[C@H](N[*:1])C(=O)[*:2]; NMeAla(isoquinolin-7-yl) = CN[C@@H](Cc1ccc2ccncc2c1)C(=O)O; SulfoCy5(3) = sulfo-Cyanine5 hexanoyl dye on the lysine NZ; 3Pal(6-Ph) = N[C@@H](Cc1ccc(-c2ccccc2)nc1)C(=O)O; Phe(4-COOH) = N[C@@H](Cc1ccc(C(=O)O)cc1)C(=O)O; S3REt = (3R)-2-amino-3-hydroxypentanoic acid; NMe2Nal = CN[C@@H](Cc1ccc2ccccc2c1)C(=O)O; AEF = NCCOc1ccc(C[C@H](N)C(=O)O)cc1; NMe3Pal = CN[C@@H](Cc1cccnc1)C(=O)O; NMeI = CC[C@H](C)[C@H](NC)C(=O)O; aIle = CC[C@@H](C)[C@H](N)C(=O)O; NMeQ = CN[C@@H](CCC(N)=O)C(=O)O; NMeK = CN[C@@H](CCCCN)C(=O)O; NMeC = CN[C@@H](CS)C(=O)O; NMeA = CN[C@@H](C)C(=O)O

Biological target: T1, Human Glypican3-Fc (ACRO Biosystems, GP3-H5258) (human, UniProt P51654 25-559)
T1 construct: Bought fusion protein, captured in Methods B-2, B-3 and B-4; Catalogue number is printed only in Method B-2; not shown: Fc part of the bought fusion
Assay: SPR (Biacore T200), Method B-3: Glypican3-Fc captured on Protein A chip, peptide as analyte
Protocol: A Protein A sensor chip (Cytiva) was inserted into a Biacore T200 (Cytiva), priming was performed three times with a running buffer: HBS-P+, pH 7.4 (Cytiva), and equilibration was carried out at a flow rate of 30 μL/min. Glypican3-Fc was allowed to react for 60 seconds at a flow rate of 10 μL/min. After capturing human Glypican3-Fe, a peptide solution prepared to 10 mM in DMSO solution was diluted with a running buffer to a final concentration of 10 μM. […] Using the above samples, peptide kinetics for Glypican3 was obtained by SPR measurement. Kinetics evaluation of Glypican3 was performed by SPR measurements at a flow rate of 10 LL/min, setting the association time to 120 seconds and the disassociation time to 600 seconds.
The obtained data by Method B-1, Method B-2, Method B-3 and Method B-4 were analyzed by follow. Single Cycle Kinetics was used as the kinetics evaluation model, and curve fitting was performed using Biacore T200 Evaluation Software Version 3.0 (Cytiva).

B1: Macrocyclic peptide of Example 2-32 (SEQ ID No. 49) (peptide)
peptide: KKDKFTIFFGXC
modifications: not fully specified; MeK-MeKCOpipzaa-D-MeKCOpipzaa-F4COO-TMe-I-F4aaopipzaa-MeNal27N-G-3Py6Ph-MeC-NH2; thioether ring from N-terminal acetyl to MeC12
For B1, which Kd is on record?
Its Kd is 1.8 nM.

B2: Macrocyclic peptide of Example 2-39 (SEQ ID No. 67) (peptide)
peptide: ASDYIIYFGXC
modifications: not fully specified; MeA-S-(position 3 absent)-D-Y-I-I-Y-MeNal2-G-3Py6Ph-MeC-NH2; thioether ring from N-terminal acetyl to MeC
notes: 11 residues
B2 was tested. Which Kd did it give?
The Kd was 25.3 nM.

B3: Macrocyclic peptide of Example 2-41 (SEQ ID No. 68) (peptide)
peptide: {CH2CO}-[NMeA]S[W5N]YIIY[NMe2Nal]G[3Pal(6-Ph)][NMeC]-NH2
modifications: thioether N-11
SMILES: CC[C@H](C)[C@@H]1NC(=O)[C@H](Cc2ccc(O)cc2)NC(=O)[C@H](Cc2c[nH]c3ccncc23)NC(=O)[C@H](CO)NC(=O)[C@H](C)N(C)C(=O)CSC[C@@H](C(N)=O)N(C)C(=O)[C@H](Cc2ccc(-c3ccccc3)nc2)NC(=O)CNC(=O)[C@H](Cc2ccc3ccccc3c2)N(C)C(=O)[C@H](Cc2ccc(O)cc2)NC(=O)[C@H]([C@@H](C)CC)NC1=O
notes: 11 residues
B3 was tested. Which Kd did it give?
The Kd was 58.5 nM.

B4: Macrocyclic peptide of Example 2-44 (SEQ ID No. 69) (peptide)
peptide: {CH2CO}-[NMeA][NMe3Pal]DY[aIle]IY[NMe2Nal]G[3Pal(6-Ph)][NMeC]-NH2
modifications: thioether N-11
SMILES: CC[C@@H](C)[C@@H]1NC(=O)[C@H](Cc2ccc(O)cc2)NC(=O)[C@H](CC(=O)O)NC(=O)[C@H](Cc2cccnc2)N(C)C(=O)[C@H](C)N(C)C(=O)CSC[C@@H](C(N)=O)N(C)C(=O)[C@H](Cc2ccc(-c3ccccc3)nc2)NC(=O)CNC(=O)[C@H](Cc2ccc3ccccc3c2)N(C)C(=O)[C@H](Cc2ccc(O)cc2)NC(=O)[C@H]([C@@H](C)CC)NC1=O
notes: 11 residues
With B4 as the binder, how does the Kd read?
The Kd was 49.1 nM.

For {CH2CO}-[MeKCOpipzaa″][MeHseMe]D[NMeQ][Phe(4-COOH)][S3REt]IY[NMeAla(isoquinolin-7-yl)]G[3Pal(6-Ph)][NMeC]-NH2 (thioether N-12) [Macrocyclic peptide of Example 2-25 (SEQ ID No. 59)], which Kd is on record?
Its Kd is 6.6 nM.

For {CH2CO}-[NMeK][MeKCOpipzaa]D[MeDapCOpipzaa][Phe(4-COOH)][Thr(Me)″]I[F4aao][NMeAla(isoquinolin-7-yl)]G[3Pal(6-Ph)][NMeC]-NH2 (thioether N-12) [Macrocyclic peptide of Example 2-29 (SEQ ID No. 46)], which Kd is on record?
The Kd was 1 nM.

Which Kd does the source give for {CH2CO}-[NMeK](SulfoCy5(3))[NMeI]D[NMeQ][Phe(4-COOH)]IIY[NMeAla(isoquinolin-7-yl)]G[3Pal(6-Ph)][NMeC]-NH2 (thioether N-12) [PLD-1] here?
Its Kd is 0.32 nM.

B5: Macrocyclic peptide of Example 2-26 (SEQ ID No. 30) (peptide)
peptide: {CH2CO}-[NMeK][NMeI]D[NMeQ][Phe(4-COOH)][Thr(Me)(3)]I[F4aao][NMeAla(isoquinolin-7-yl)]G[3Pal(6-Ph)][NMeC]-NH2
modifications: thioether N-12
SMILES: CC[C@H](C)[C@@H]1NC(=O)[C@H]([C@@H](C)OC)NC(=O)[C@H](Cc2ccc(C(=O)O)cc2)NC(=O)[C@H](CCC(N)=O)N(C)C(=O)[C@H](CC(=O)O)NC(=O)[C@H]([C@@H](C)CC)N(C)C(=O)[C@H](CCCCN)N(C)C(=O)CSC[C@@H](C(N)=O)N(C)C(=O)[C@H](Cc2ccc(-c3ccccc3)nc2)NC(=O)CNC(=O)[C@H](Cc2ccc3ccncc3c2)N(C)C(=O)[C@H](Cc2ccc(OCC(=O)O)cc2)NC1=O
Which Kd does the source give for B5 here?
The Kd was 0.3 nM.

Which Kd does the source give for {CH2CO}-[NMeK][MeKCOpipzaa]D[MeDapCOpipzaa][3Py6NHaa][Thr(Me)″]I[F4aao][NMeAla(isoquinolin-7-yl)]G[3Pal(6-Ph)][NMeC]-NH2 (thioether N-12) [Macrocyclic peptide of Example 2-30 (SEQ ID No. 47)] here?
The Kd was 6.6 nM.

{CH2CO}-[NMeA][MeHseMe]D[NMeQ][Phe(4-COOH)][Thr(Me)″]I[AEF][NMe2Nal]G[3Pal(6-Ph)][NMeC]-NH2 (thioether N-12) [Macrocyclic peptide of Example 2-28 (SEQ ID No. 44)] was tested. Which Kd did it give?
Its Kd is 0.3 nM.

B6: Macrocyclic peptide of Example 2-38 (SEQ ID No. 55) (peptide)
peptide: KSDXFTIXFGXC
modifications: not fully specified; MeKCOpipzaa-MeHseMe-D-MeDapCOpipzaa-F4COO-TMe-I-Yae-MeNal27N-G-3Py6Ph-MeC-NH2; thioether ring from N-terminal acetyl to MeC12
B6 was tested. Which Kd did it give?
The Kd was 1.8 nM.
